Experimental data reported in US20240352133A1.
Residue numbers refer to the chain shown, from its start. Each block holds one binder with its values, some of them ahead of it.

Assays:
[1] = biological target: Recombinant human his-tagged IGF 1R extracellular domain protein (human) (UniProt P08069); assay: SPR, captured antibody, pH 7.4
[2] = biological target: Recombinant human his-tagged IGF 1R extracellular domain protein (human) (UniProt P08069); assay: SPR, captured antibody, dissociation at pH 6

Kd [1]: 236 nM
koff [1]: 0.0173 s⁻¹
kon [1]: 73300 M⁻¹ s⁻¹
B1: VRDN-03089 (antibody, V domains shown)
VH: QVQLVESGGGVVQPGRSLRLSCAASGFTFSSYGMHWVRQAPGKGLEWVAIIWFDGSSTYYADSVRGRFTISRDNSKNTLYLQMNSLRAEDTAVYYCARELGRRYFDLWGRGTLVTVSS
VL: EIVLTQSPATLSLSPGERATLSCRASQSVSSSYLAWYQQKPGQAPRLLIYDASKRATGIPARFSGSGSGTDFTLTISSLEPEDFAVYYCQQRSKWPPWTFGQGTKVEIK

Kd [1]: 1.84 nM
koff [1]: 0.000157 s⁻¹
kon [1]: 85200 M⁻¹ s⁻¹
B2: VRDN-03124 (antibody, V domains shown)
VH: B1 VH with Q1E, S30D, S31D, G33T, T58K, R65K, L107I, R110Q
VL: EIVMTQSPATLSVSPGERATLSCRASQGVSSYLAWYQQKPGQAPRLLIYGASTRATGIPARFSGSGSGTEFTLTISSLQSEDFAVYYCQQRSRWPPWTFGQGTKLEIK

Kd [1]: 4.06 nM
koff [1]: 0.000414 s⁻¹
kon [1]: 102000 M⁻¹ s⁻¹
B3: VRDN-03135 (antibody, V domains shown)
VH: B1 VH with Q1E, S30D, S31D, G33A, T58K, R65K, L107I, R110Q
VL: B2 VL with Y32N, Q101G

Kd [1]: 4.09 nM
koff [1]: 0.000455 s⁻¹
kon [1]: 111000 M⁻¹ s⁻¹
B4: VRDN-03122 (antibody, V domains shown)
VH: B1 VH with Q1E, G33S, I50V, F53Y, T58K, R65K, G66S, L107I, R110Q
VL: B2 VL

Kd [1]: 11 nM
koff [1]: 0.00902 s⁻¹
kon [1]: 819000 M⁻¹ s⁻¹
B5: VRDN-03091 (antibody, V domains shown)
VH: B1 VH
VL: B1 VL with R24G

Kd [1]: 8.1 nM
koff [1]: 0.00391 s⁻¹
kon [1]: 483000 M⁻¹ s⁻¹
B6: VRDN-03117 (antibody, V domains shown)
VH: B1 VH with Q1E, G33S, S57N, T58K, R65K, G66S, L107I, R110Q
VL: B2 VL

Kd [1]: 15.1 nM
koff [1]: 0.0142 s⁻¹
kon [1]: 940000 M⁻¹ s⁻¹
B7: VRDN-03137 (antibody, V domains shown)
VH: B1 VH with Q1E, S30D, S31D, G33A, I50V, F53Y, T58K, R65K, L107I, R110Q
VL: B2 VL with Y32N, Q101G

Kd [1]: 8.61 nM
koff [1]: 0.00292 s⁻¹
kon [1]: 339000 M⁻¹ s⁻¹
B8: VRDN-03125 (antibody, V domains shown)
VH: B1 VH with Q1E, S30D, S31D, G33A, I50V, F53Y, T58K, R65K, L107I, R110Q
VL: B2 VL

Kd [1]: 7.3 nM
koff [1]: 0.00241 s⁻¹
kon [1]: 331000 M⁻¹ s⁻¹
B9: VRDN-03128 (antibody, V domains shown)
VH: B1 VH with Q1E, S31D, G33T, T58K, A61P, D62G, R65K, L107I
VL: B2 VL with Y32N, Q101G

Kd [1]: 9.78 nM
koff [1]: 0.00153 s⁻¹
kon [1]: 157000 M⁻¹ s⁻¹
B10: VRDN-03119 (antibody, V domains shown)
VH: B1 VH with Q1E, G33S, S57E, T58K, A61V, R65K, G66S, L107I, R110Q
VL: B2 VL

Kd [1]: 4.27 nM
koff [1]: 0.000486 s⁻¹
kon [1]: 114000 M⁻¹ s⁻¹
B11: VRDN-03121 (antibody, V domains shown)
VH: B1 VH with Q1E, G33S, I50V, F53Y, T58K, R65K, G66S, L107I
VL: B2 VL

Kd [1]: 1.08 nM
koff [1]: 0.000107 s⁻¹
kon [1]: 98600 M⁻¹ s⁻¹
B12: VRDN-03118 (antibody, V domains shown)
VH: B1 VH with Q1E, G33S, T58K, A61V, R65K, G66S, L107I, R110Q
VL: B2 VL

Kd [1]: 8.7 nM
koff [1]: 0.00297 s⁻¹
kon [1]: 341000 M⁻¹ s⁻¹
B13: VRDN-03126 (antibody, V domains shown)
VH: B1 VH with Q1E, S30D, S31D, G33T, I50V, F53Y, T58K, R65K, L107I, R110Q
VL: B2 VL

Kd [1]: 4.89 nM
koff [1]: 0.0012 s⁻¹
kon [1]: 245000 M⁻¹ s⁻¹
B14: VRDN-03134 (antibody, V domains shown)
VH: B1 VH with Q1E, G33S, I50V, F53Y, T58K, R65K, G66S, L107I, R110Q
VL: B2 VL with Y32N, Q101G

Kd [1]: 2.84 nM
koff [1]: 0.000253 s⁻¹
kon [1]: 89100 M⁻¹ s⁻¹
B15: VRDN-03136 (antibody, V domains shown)
VH: B1 VH with Q1E, S30D, S31D, G33T, T58K, R65K, L107I, R110Q
VL: B2 VL with Y32N, Q101G

Kd [1]: 6.51 nM
koff [1]: 0.00228 s⁻¹
kon [1]: 350000 M⁻¹ s⁻¹
B16: VRDN-03133 (antibody, V domains shown)
VH: B1 VH with Q1E, G33S, I50V, F53Y, T58K, R65K, G66S, L107I
VL: B2 VL with Y32N, Q101G

Kd [1]: 4.3 nM
koff [1]: 0.00091 s⁻¹
kon [1]: 212000 M⁻¹ s⁻¹
B17: VRDN-03116 (antibody, V domains shown)
VH: B1 VH with Q1E, S31D, G33T, T58K, A61P, D62G, R65K, L107I
VL: B2 VL

Kd [1]: 0.573 nM
koff [1]: 7.48e-05 s⁻¹
kon [1]: 131000 M⁻¹ s⁻¹
B18: VRDN-03127 (antibody, V domains shown)
VH: B1 VH with Q1E, S31D, G33T, T58K, R65K, G66S, L107I, R110Q
VL: B2 VL

Kd [1]: 3.96 nM
koff [1]: 0.00128 s⁻¹
kon [1]: 322000 M⁻¹ s⁻¹
B19: VRDN-03120 (antibody, V domains shown)
VH: B1 VH with Q1E, G33S, I50V, F53Y, T58K, R65K, L107I, R110Q
VL: B2 VL

Kd [1]: 2.72 nM
koff [1]: 0.000275 s⁻¹
kon [1]: 101000 M⁻¹ s⁻¹
B20: VRDN-03130 (antibody, V domains shown)
VH: B1 VH with Q1E, G33S, T58K, A61V, R65K, G66S, L107I, R110Q
VL: B2 VL with Y32N, Q101G

Kd [1]: 8.75 nM
koff [1]: 0.00433 s⁻¹
kon [1]: 495000 M⁻¹ s⁻¹
B21: VRDN-03138 (antibody, V domains shown)
VH: B1 VH with Q1E, S30D, S31D, G33T, I50V, F53Y, T58K, R65K, L107I, R110Q
VL: B2 VL with Y32N, Q101G

Kd [1]: 11 nM
koff [1]: 0.00709 s⁻¹
kon [1]: 646000 M⁻¹ s⁻¹
B22: VRDN-03129 (antibody, V domains shown)
VH: B1 VH with Q1E, G33S, S57N, T58K, R65K, G66S, L107I, R110Q
VL: B2 VL with Y32N, Q101G

Kd [1]: 10.1 nM
koff [1]: 0.004 s⁻¹
kon [1]: 395000 M⁻¹ s⁻¹
B23: VRDN-03132 (antibody, V domains shown)
VH: B1 VH with Q1E, G33S, I50V, F53Y, T58K, R65K, L107I, R110Q
VL: B2 VL with Y32N, Q101G

Kd [1]: 16.2 nM
koff [1]: 0.00141 s⁻¹
kon [1]: 86900 M⁻¹ s⁻¹
B24: VRDN-03131 (antibody, V domains shown)
VH: B1 VH with Q1E, G33S, S57E, T58K, A61V, R65K, G66S, L107I, R110Q
VL: B2 VL with Y32N, Q101G

Kd [1]: 1.43 nM
koff [1]: 9.19e-05 s⁻¹
kon [1]: 64200 M⁻¹ s⁻¹
B25: VRDN-03123 (antibody, V domains shown)
VH: B1 VH with Q1E, S30D, S31D, G33A, T58K, R65K, L107I, R110Q
VL: B2 VL

Kd [1]: 2.46 nM
koff [1]: 0.000262 s⁻¹
kon [1]: 107000 M⁻¹ s⁻¹
B26: VRDN-03139 (antibody, V domains shown)
VH: B1 VH with Q1E, S31D, G33T, T58K, R65K, G66S, L107I, R110Q
VL: B2 VL with Y32N, Q101G

Kd [2]: 1.21 nM
koff [2]: 0.000297 s⁻¹
kon [2]: 246000 M⁻¹ s⁻¹
B27: VRDN-03115 (antibody, V domains shown)
VH: B1 VH with S31D, Y32H, G33Y, H35D, T58K, A61P, D62G, R65K, L107I
VL: B2 VL
